The target of assay [1] is T1, human TGF-β2 (human, UniProt P61812 303-414).
T1 construct: also called TGF-ß2
T1 sequence (looked up): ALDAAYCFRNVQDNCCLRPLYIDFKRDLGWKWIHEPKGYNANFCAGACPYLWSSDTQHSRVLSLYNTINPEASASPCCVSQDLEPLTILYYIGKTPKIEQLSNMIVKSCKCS
Put plainly: cell-based or functional assay.

Assay [2] deals with human TGF-β1 (human, UniProt P01137 279-390). The experiment in a line: cell-based or functional assay.
Assay [3] has as its target T2, human TGF-β3 (human, UniProt P10600 301-412).
T2 sequence: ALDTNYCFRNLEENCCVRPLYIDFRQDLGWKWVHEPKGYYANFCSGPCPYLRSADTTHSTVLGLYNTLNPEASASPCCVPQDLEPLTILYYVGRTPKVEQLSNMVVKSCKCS
Put plainly: cell-based or functional assay.

Assay [4] concerns the target T1, human TGF-β2. The experiment in a line: assay not named. Here is the method:
Mink lung epithelial cell line (TMLECs) were stably transfected with a truncated PAI-1 promoter fused to the firefly luciferase reporter gene. 500 pg/ml human TGF-ß3 was incubated with serial dilutions of isolated TGF-β3 antibody for 4 h at 37° C. before transfer to an equal volume of culture medium (DMEM + 10 % FCS) where 50,000 TMLEC cells had been seeded 1 - 4 h earlier. After a further 24 h incubation, luciferase activity was measured with the BRITELITE kit from Perkin-Elmer and luminescence was measured in a TOPCOUNT NXT from Perkin Elmer.
Antibody ranging from 10 to 0 µg/ml were incubated with 500 pg/ml of the different TGF-β isoforms and TMLEC cells for 24 hours.

human TGF-β1, sequence (P01137 279-390 limits assumed): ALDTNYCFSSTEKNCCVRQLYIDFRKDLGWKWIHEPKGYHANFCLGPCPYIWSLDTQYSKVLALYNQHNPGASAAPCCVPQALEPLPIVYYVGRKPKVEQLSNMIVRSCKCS

B1: 1D11 mouse monoclonal anti-TGF-ß antibody (antibody, from another filing, V domains shown)
VH: QVQLQQSGPELVRPGASVKLSCKASGYIFITYWMNWVKQRPGQGLEWIGQIFPASGSTNYNEMFEGKATLTVDTSSSTAYMQLSSLTSEDSAVYYCARGDGNYALDAMDYWGQGTSVTVSS
VL: DIVLTQSPASLAVSLGQRATISCRASESVDSYGNSFMHWYQQKSGQPPKLLIYLASNLESGVPARFSGSGSRTDFTLTIDPVEADDAATYYCQQNNEDPLTFGAGTKLEIK
B1: the IC 50 (ng/ml), TMLEC PAI-1 promoter luciferase assay in assay [1] came out at 53.7 ng/mL; in assay [2] it was 72 ng/mL; in assay [3], 6.5 ng/mL.

B2: MTGF-β3-1901/16 (antibody, IgG1, V domains shown)
VH: QVLLQQSGPELVKPGASVKISCKASGYAFSSSWIHWVKQRPGKGLEWIGRIYPGDGDTNYTGKFKGKATLTADKSSSTAYMQLSSLTSEDSAVYFCARRMITTQAAMDYWGQGTSVTVSS
VL: SFVMTQTPKFLLVSAGDRVTITCKASQSVINAVAWYQQKPGQSPKLLIYYASNRYTGVPDRFTGNGYGTDFTFTISTVQAEDLAVYFCQQDYSSPYTFGGGTKLEIK
Regarding B2, the “IC 50 (ng/ml), TMLEC PAI-1 promoter luciferase assay” value (“IC 50 (ng/ml)” below) in assay [3] was 25 ng/mL.

B3: MTGF-β3-1679/2 (antibody, IgG2a, V domains shown)
VH: QVLLQQSGPELVKPGASVKISCKASGYAFSSSWIHWVKQRPGKGLEWIGRIYPGDGDTNYTGKFKGKATLTADKSSSTAYMQLSSLTSEDSAVYFCARRMITTQAAMDYWGQGTSVTVSS
VL: SFVMTQTPKFLLVSAGDRVTITCKASQSVINAVAWYQQKPGQSPKLLIYYASNRYTGVPDRFTGNGYGTDFTFTISTVQAEDLAVYFCQQDYSSPYTFGGGTKLEIK
With B3, the “IC 50 (ng/ml)” value in assay [3] was determined as 6 ng/mL.

B4: MTGF-β3-9/8 (antibody, IgG2a, V domains shown)
VH: QVLLQQSGPELVKPGASVKISCKASGYAFSSSWMHWVKQRPGKGLEWIGRIFPGDGDTIYNGNFKGKATLTADKSSSTAYMQLSSLTSEDSAVYFCARRMITTQAAMDYWGQGTSVTVSS
VL: SIVMTQTPKFLLVSAGDRVTITCKASQSVINDVAWYQQKPGQSPKLLIYYASNRYTGVPDRFTGNGYGTDFTFTISTVQAEDLAVYFCQQDYSSPYTFGGGTKLEIK
For B4, in assay [3], the “IC 50 (ng/ml)” value came to 13 ng/mL.

B5: MTGF-β3-1719/13 (antibody, IgG2a, V domains shown)
VH: QVQLQQPGAELVKPGASVKMSCKASGYIFTSYWITWVKQRPGQGLEWIGDIFPGTGSTNYNEKFKTKASLTVDTSSSTANMQLSSLTSEDSAVYSCARKLGPNYAVDYWGQGTSVTVSS
VL: DVVMTQTPLSLPVSLGDQASISCRSSQSLIHSHGNTYLHWYLQKPGQSPKLLIYKLSNRFSGVPDRFSGSGSGTDFTLKISRVEAEDLGVYFCSQSTHVPFTFGSGTKLEIK
notes: also called TGF-ß3-17
With B5, in assay [4], the binding result was “binds”. Besides, the entries for the “IC 50 (ng/ml)” value in assay [2] and in assay [3] were 263 ng/mL and 79 ng/mL, respectively.

B6: MTGF-β3-1203/11 (antibody, IgG2b, V domains shown)
VH: QVQLKQSGAELVKPGASVKISCKASGYTFTDYYINWVKQRPGQGLEWIGKIGPGTGRTYYNEKFKGKATLTADKSSSTAYMQLSSLTSEDSAVYFCAIYYGWGYAMDYWGQGTSVTVSS
VL: DIVMTQSPSSLSVSAGEKVTMSCKSSQSLLNSGNQKNYLAWYQQKSGQPPKLLIYGASTRESGVPDRFTGSGSGTDFTLTISSVQAEDLAVYYCQNDHGFPLTFGAGTKLELK
In the case of B6, in assay [3], the “IC 50 (ng/ml)” value is 54 ng/mL.
